One molecule from US8110660B2, “Soluble ENPP4 protein” (Ono Pharmaceutical Co., Ltd., priority 2004, dated 2012) can be followed below.

Format in all cases: biochemical
Assay [1] can be described thus: NPP/PDE activity of soluble type ENPP proteins (pNP-TMP degradation, 405 nm). The conditions noted are these: 1 mM pNP-TMP, pH 9.6, 37° C., 2 hours, absorption at 405 nm. On the procedure: 400 mL of the culture supernatant of the cells expressing the soluble type human ENPP4 protein was concentrated at 8 times by using Amicon Ultra-15 (fraction molecular weight 10,000, manufactured by Millipore Inc.). The His-Tag-added protein was affinity-purified by using AKTAexplorer 10S (manufactured by Amersham Biosciences Inc.) and His-Trap column (manufactured by Amersham Biosciences Inc.). Samples in the respective purification steps were subjected to SDS-PAGE according to a predetermined method and then the protein was stained by using Simply-Blue-Stain (manufactured by Invitrogen Inc.). […] 40 μL of each of the respective purification steps and purified soluble type human ENPP4-FLAG-His proteins was mixed with 50 μL of assay buffer (20 mM HEPES, 140 mM NaCl, 5 mM KCl, 1 mM CaCl2, 1 mM MgCl2, 10 mM Glucose, pH 9.6, the method of Voltmeter P. et al., Eur. J. Biochem. 270 (2003) 2971-78 was improved) and 10 μL of 10 mM p-nitrophenyl-Thymidine monophosphate (pNP-TMP, Sigma Inc.), and the mixture was kept at 37° C. for 2 hours and then, absorption of light of 405 nm was measured and thereby, p-nitorphenol, which was a degradation product, was measured and, whether the Nucleotide Pyrophosphatase (NPP)/Phospho-Diesterase (PDE) activity existed or not was examined. […]

The nature of assay [2]: PDE/PME activity of soluble type ENPP proteins (pNP-PP or bis-pNPP degradation). The conditions noted are these: 0.2 μg protein, 1 mM pNP-PP (ENPP6 also bis-pNPP), pH 9.6, 37° C., 90 min, FIG. 8. On the procedure: 0.2 μg of the purified soluble type ENPP4 protein was mixed in 90 μL of assay buffer (20 mM HEPES, 140 mM NaCl, 5 mM KCl, 1 mM CaCl2, 1 mM MgCl2, 10 mM Glucose, pH 9.6) and 10 μL of 10 mM p-nitrophenyl phenylphosphonate (pNP-PP, manufactured by Sigma Inc.), and was kept at 37° C. for 90 min and then, absorption of light of 405 nm was measured and thereby, the amount of P-nitrophenol was quantitatively determined and, whether the PDE/PME activity existed or not was examined.
0.2 μg of the purified soluble type ENPP5 protein was mixed in 90 μL of assay buffer (20 mM HEPES, 140 mM NaCl, 5 mM KCl, 1 mM CaCl2, 1 mM MgCl2, 10 mM Glucose, pH 9.6) and 10 μL of 10 mM pNP-PP, and was kept at 37° C. for 90 min and then, absorption of light of 405 nm was measured and thereby, the amount of p-nitrophenol was quantitatively determined and, whether the PDE/PME activity existed or not was examined.
0.2 μg of the purified soluble type ENPP6 protein was mixed in 90 μL of assay buffer (20 mM HEPES, 140 mM NaCl, 5 mM KCl, 1 mM CaCl2, 1 mM MgCl2, 10 mM Glucose, pH 9.6) and 10 μL of 10 mM pNP-PP or bis-(p-nitrophenyl)phosphate (bis-pNPP), and was kept at 37° C. for 90 min and then, absorption of light of 405 nm was measured and thereby, the amount of p-nitrophenol was quantitatively determined and, whether the PDE/PME activity existed or not was examined.

Assay [3] in a line: Bivalent cation requirement of soluble type ENPP proteins (PDE/PME activity). The following applies: MgCl2 and CaCl2 1 mM vs no additive vs EDTA 1 mM, pNP-PP, FIG. 9. On the procedure: (§1) 0.2 μg of the purified soluble type ENPP4 protein was mixed in 90 μL of assay buffer (20 mM HEPES, 140 mM NaCl, 5 mM KCl, 10 mM Glucose, pH 9.6), 10 μL of 10 mM pNP-PP, and (1) 1 mM final concentration of MgCl2 and CaCl2, (2) no additive, or (3) 1 mM final concentration of EDTA, and then was kept at 37° C. for 90 min and then, absorption of light of 405 nm was measured and thereby, the increase or decrease of the PDE/PME activity by removing bivalent cations was examined.
as §1, with “ENPP5” for “ENPP4”, “examined. […] It has been thought that a certain cation except for calcium and magnesium ions is bonded to the purified soluble type ENPP5 protein because the activity decreases in the EDTA-adding sample and increases in the no-additive sample. […]” for “examined.”

B1: soluble type ENPP4 protein: extracellular region of human ENPP4 with FLAG tag and 6×His tag at the C terminal, expressed in HEK293T cells, purified (protein, UniProt Q9Y6X5 16-407, looked up)
extracellular domain: FRSDSSSSLPPKLLLVSFDGFRADYLKNYEFPHLQNFIKEGVLVEHVKNVFITKTFPNHYSIVTGLYEESHGIVANSMYDAVTKKHFSDSNDKDPFWWNEAVPIWVTNQLQENRSSAAAMWPGTDVPIHDTISSYFMNYNSSVSFEERLNNITMWLNNSNPPVTFATLYWEEPDASGHKYGPEDKENMSRVLKKIDDLIGDLVQRLKMLGLWENLNVIITSDHGMTQCSQDRLINLDSCIDHSYYTLIDLSPVAAILPKINRTEVYNKLKNCSPHMNVYLKEDIPNRFYYQHNDRIQPIILVADEGWTIVLNESSQKLGDHGYDNSLPSMHPFLAAHGPAFHKGYKHSTINIVDIYPMMCHILGLKPHPNNGTFGHTKCLLVDQWCINLPEA
modifications: extracellular domain C-terminal FLAG and 6xHis tags
notes: extracellular region of human ENPP4 with FLAG tag and 6×His tag at the C terminal, expressed in HEK293T cells, purified
Consider B1, for which the NPP/PDE activity result in assay [1] is given as “NPP/PDE activity was detected”. Moreover, the PDE/PME activity entry in assay [2] is “has the PDE/PME activity”. Further, the bivalent cation requirement entry in assay [3] was “does not require bivalent cations”.
